{"source": "the supplement of paper PMC12764529", "key": {"[1]": {"assay": "folding stability dG unfold (combined trypsin and chymotrypsin); higher = more stable", "method_in_brief": "(§1)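 Unfolding free energy was derived, per protease or combined, by relating Bayesian-fitted K50 values from sequencing counts to a sequence-predicted unfolded-state K50 and a shared folded-state K50. The underlying digests exposed cysteine-free mini-proteins under 80 residues, in a PA-tagged cDNA display construct, to trypsin and chymotrypsin at 11 threefold-diluted concentrations and to a no-protease condition. A filter kept only designs with AlphaFold2 dimer inter-PAE above 15.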"}, "[2]": {"assay": "folding stability dG unfold from chymotrypsin proteolysis; higher = more stable", "method_in_brief": "as §1"}, "[3]": {"assay": "folding stability dG unfold from trypsin proteolysis; higher = more stable", "method_in_brief": "as §1"}}, "note": "± gives the half width of the 95% confidence interval.", "data": [{"sequence": "SAGGSAGGSMLTIEKPMPGTTEEEALEYAEELKEKNPNYKIEVEIEKTEEGYLTVKIKLTKKESAGGSAGGS [r12_425_JUSTAS]", "values": [{"measurement": "folding stability dG unfold", "setting": "[1]", "result": "0.972 ± 0.24", "unit": "kcal/mol"}, {"measurement": "folding stability dG unfold", "setting": "[2]", "result": "0.879 ± 0.12", "unit": "kcal/mol"}, {"measurement": "folding stability dG unfold", "setting": "[3]", "result": "1.31 ± 0.12", "unit": "kcal/mol"}]}, {"sequence": "SAGGMEIVSSGSLEEAIALLKENPNTTITVTLPDGTTVVIKVTQNGEGPYIYDVSTEPPAAAPSPSLVSAGG [r13_56_JUSTAS]", "values": [{"measurement": "folding stability dG unfold", "setting": "[1]", "result": "1.66 ± 0.079", "unit": "kcal/mol"}, {"measurement": "folding stability dG unfold", "setting": "[2]", "result": "1.1 ± 0.038", "unit": "kcal/mol"}, {"measurement": "folding stability dG unfold", "setting": "[3]", "result": "2.15 ± 0.096", "unit": "kcal/mol"}]}, {"sequence": "SAGGSAGGSAGGDDNDKEPIGEVTVEVIIPPQIPIRIRWDIYKDPPNGNAMMNMDIDIHSAGGSAGGSAGGS [r10_6_TrROS]", "values": [{"measurement": "folding stability dG unfold", "setting": "[1]", "result": "0.719 ± 0.22", "unit": "kcal/mol"}, {"measurement": "folding stability dG unfold", "setting": "[2]", "result": "0.968 ± 0.12", "unit": "kcal/mol"}, {"measurement": "folding stability dG unfold", "setting": "[3]", "result": "0.638 ± 0.12", "unit": "kcal/mol"}]}, {"sequence": "SAEEAAKNFKPIRIRLRDPRGRLYEVERIELTPDGRLLITLRLPNETRTYLIEPDHPFPLPPDLIIEVEGSA [r9_993_TrMRF]", "values": [{"measurement": "folding stability dG unfold", "setting": "[1]", "result": "3.34 ± 0.08", "unit": "kcal/mol"}, {"measurement": "folding stability dG unfold", "setting": "[2]", "result": "3.59 ± 0.043", "unit": "kcal/mol"}, {"measurement": "folding stability dG unfold", "setting": "[3]", "result": "2.74 ± 0.049", "unit": "kcal/mol"}]}, {"sequence": "SAGGSWVIIIQITIRNPGEERKITIPMEEIQGMPLEQIADNLRKLPGIGDVTIEIQEFPPPKPNDPSAGGSA [r2_282_TrROS]", "values": [{"measurement": "folding stability dG unfold", "setting": "[1]", "result": "2.31 ± 0.2", "unit": "kcal/mol"}, {"measurement": "folding stability dG unfold", "setting": "[2]", "result": "2.34 ± 0.099", "unit": "kcal/mol"}, {"measurement": "folding stability dG unfold", "setting": "[3]", "result": "2.31 ± 0.11", "unit": "kcal/mol"}]}, {"sequence": "SAGGSPPNITYELTFPDGTVYTDPLPGKSLEELKEYVKSLNFTNVEVTVYEESSEVSTYKVTIPPNESAGGS [r16_700_JUSTAS]", "values": [{"measurement": "folding stability dG unfold", "setting": "[1]", "result": "0.437 ± 0.12", "unit": "kcal/mol"}, {"measurement": "folding stability dG unfold", "setting": "[2]", "result": "0.57 ± 0.13", "unit": "kcal/mol"}, {"measurement": "folding stability dG unfold", "setting": "[3]", "result": "0.169 ± 0.079", "unit": "kcal/mol"}]}, {"sequence": "SAGGPSHPLGPVALTLDPAASTLTVTLGDEVLTLPVPPGVTATATSYPDSVTVTLTFPDGTVVTVTLPLSAG [r5_21_JUSTAS]", "values": [{"measurement": "folding stability dG unfold", "setting": "[1]", "result": "2.89 ± 0.056", "unit": "kcal/mol"}, {"measurement": "folding stability dG unfold", "setting": "[2]", "result": "3.18 ± 0.034", "unit": "kcal/mol"}, {"measurement": "folding stability dG unfold", "setting": "[3]", "result": "2.18 ± 0.063", "unit": "kcal/mol"}]}, {"sequence": "SAGGSAGGSAGKYEVTKIEVVKNEDGSEYLRVTIKVDGKEITITIPLEDAENIKIEIKPPSAGGSAGGSAGG [r17_64_TrROS_Hall]", "values": [{"measurement": "folding stability dG unfold", "setting": "[1]", "result": "3.38 ± 0.12", "unit": "kcal/mol"}, {"measurement": "folding stability dG unfold", "setting": "[2]", "result": "3.59 ± 0.036", "unit": "kcal/mol"}, {"measurement": "folding stability dG unfold", "setting": "[3]", "result": "2.69 ± 0.086", "unit": "kcal/mol"}]}, {"sequence": "SGMIDVDLDYTTEDGRPVKVSASYDPATGVLTFKVPDNDDVIIATVTEVTTEDESVTVTLNVTRYSKELLSA [r9_587_JUSTAS]", "values": [{"measurement": "folding stability dG unfold", "setting": "[1]", "result": "2.09 ± 0.14", "unit": "kcal/mol"}, {"measurement": "folding stability dG unfold", "setting": "[2]", "result": "2.54 ± 0.066", "unit": "kcal/mol"}, {"measurement": "folding stability dG unfold", "setting": "[3]", "result": "0.957 ± 0.072", "unit": "kcal/mol"}]}, {"sequence": "SAGGSAGGSAGMKVKTDPSSGPTVNKAYLENGTLILTTVTYDPSNGTTSTTTTVVPLSLLSAGGSAGGSAGG [r17_287_JUSTAS]", "values": [{"measurement": "folding stability dG unfold", "setting": "[1]", "result": "0.823 ± 0.21", "unit": "kcal/mol"}, {"measurement": "folding stability dG unfold", "setting": "[2]", "result": "1.23 ± 0.22", "unit": "kcal/mol"}, {"measurement": "folding stability dG unfold", "setting": "[3]", "result": "0.433 ± 0.12", "unit": "kcal/mol"}]}, {"sequence": "SAGGSAGGSPPDFVIQPEVEHTRDPENGKHEATVKIEIMDGRPIEIPFKSPEDAEDAIKELINSAGGSAGGS [r12_389_TrROS]", "values": [{"measurement": "folding stability dG unfold", "setting": "[1]", "result": "0.829 ± 0.13", "unit": "kcal/mol"}, {"measurement": "folding stability dG unfold", "setting": "[2]", "result": "0.382 ± 0.098", "unit": "kcal/mol"}, {"measurement": "folding stability dG unfold", "setting": "[3]", "result": "1.14 ± 0.079", "unit": "kcal/mol"}]}, {"sequence": "SAGGSAGGSSMPFLNPDGHPAVLVEVDGSTGSLSVELRGPDGRPVLQVSVSVSGPATVTVRVGSAGGSAGGS [r12_960_JUSTAS]", "values": [{"measurement": "folding stability dG unfold", "setting": "[1]", "result": "2.61 ± 0.079", "unit": "kcal/mol"}, {"measurement": "folding stability dG unfold", "setting": "[2]", "result": "2.56 ± 0.086", "unit": "kcal/mol"}, {"measurement": "folding stability dG unfold", "setting": "[3]", "result": "2.75 ± 0.11", "unit": "kcal/mol"}]}, {"sequence": "SAGGMTVTVLEVTEEEVIIDDKKEKIITITIKLPDGTEITVTLSTSEIEAKGLTKEEAVEYIAKKLLSAGGS [r16_625_JUSTAS]", "values": [{"measurement": "folding stability dG unfold", "setting": "[1]", "result": "3.99 ± 0.078", "unit": "kcal/mol"}, {"measurement": "folding stability dG unfold", "setting": "[2]", "result": "4.16 ± 0.058", "unit": "kcal/mol"}, {"measurement": "folding stability dG unfold", "setting": "[3]", "result": "3.55 ± 0.085", "unit": "kcal/mol"}]}, {"sequence": "SAGGSAGGSAMSVVVKYTVLLTDPVTGKTTVVPVTATLPVSDGTAKTIEEIVAEHPNYEILESAGGSAGGSA [r18_267_JUSTAS]", "values": [{"measurement": "folding stability dG unfold", "setting": "[1]", "result": "1.56 ± 0.039", "unit": "kcal/mol"}, {"measurement": "folding stability dG unfold", "setting": "[2]", "result": "1.3 ± 0.026", "unit": "kcal/mol"}, {"measurement": "folding stability dG unfold", "setting": "[3]", "result": "1.81 ± 0.068", "unit": "kcal/mol"}]}, {"sequence": "SAGGSAGGGSMSVSYDPSTGNTITTTTTRSPTPLTTTTTTTTFPDGSTSTSTTTTAAPPPAPTTSAGGSAGG [r6_955_JUSTAS]", "values": [{"measurement": "folding stability dG unfold", "setting": "[1]", "result": "0.761 ± 0.046", "unit": "kcal/mol"}, {"measurement": "folding stability dG unfold", "setting": "[2]", "result": "0.716 ± 0.024", "unit": "kcal/mol"}, {"measurement": "folding stability dG unfold", "setting": "[3]", "result": "0.833 ± 0.029", "unit": "kcal/mol"}]}, {"sequence": "SAGGSAGGPKHVEIVITPDLRKEIEENQKEGDPPTLMEIAKEIAREFRANGMPVDIKILPPEDFSAGGSAGG [r6_815_TrROS]", "values": [{"measurement": "folding stability dG unfold", "setting": "[1]", "result": "0.452 ± 0.23", "unit": "kcal/mol"}, {"measurement": "folding stability dG unfold", "setting": "[2]", "result": "0.29 ± 0.31", "unit": "kcal/mol"}, {"measurement": "folding stability dG unfold", "setting": "[3]", "result": "0.216 ± 0.07", "unit": "kcal/mol"}]}, {"sequence": "SAGAAPGEPVVLVLPDGTVIPVIPRPDGSATLDAVAPSADGTYTVTASLPATGTTVTLELSAPPSFVAASAG [r5_394_TrMRF]", "values": [{"measurement": "folding stability dG unfold", "setting": "[1]", "result": "1.16 ± 0.043", "unit": "kcal/mol"}, {"measurement": "folding stability dG unfold", "setting": "[2]", "result": "0.824 ± 0.052", "unit": "kcal/mol"}, {"measurement": "folding stability dG unfold", "setting": "[3]", "result": "1.43 ± 0.038", "unit": "kcal/mol"}]}, {"sequence": "SAGGPVVEKIRELLKELGYEVEVTDVKEDYVEIKVKLPDKEITLPDGSKIERLENGELRIWIPKEDLSAGGS [r8_297_TrROS_Hall]", "values": [{"measurement": "folding stability dG unfold", "setting": "[1]", "result": "3.25 ± 0.083", "unit": "kcal/mol"}, {"measurement": "folding stability dG unfold", "setting": "[2]", "result": "3.4 ± 0.088", "unit": "kcal/mol"}, {"measurement": "folding stability dG unfold", "setting": "[3]", "result": "2.98 ± 0.061", "unit": "kcal/mol"}]}, {"sequence": "SAGGMKTYTVTVEREVPDPSSDKWVYSTETLTIPYNVDPKTGTTPEEVAEELKAALPPDVLRVEFTDESAGG [r13_335_JUSTAS]", "values": [{"measurement": "folding stability dG unfold", "setting": "[1]", "result": "0.317 ± 0.13", "unit": "kcal/mol"}, {"measurement": "folding stability dG unfold", "setting": "[2]", "result": "0.468 ± 0.21", "unit": "kcal/mol"}, {"measurement": "folding stability dG unfold", "setting": "[3]", "result": "-0.166 ± 0.14", "unit": "kcal/mol"}]}, {"sequence": "SAGMPEVKLLPKPDGSLVLVVVFEDKAIIIEFPPDGEGKIYIIDLKNNKITEIPFPSEDPLKAIKEALSSAG [r5_674_TrMRF]", "values": [{"measurement": "folding stability dG unfold", "setting": "[1]", "result": "3.72 ± 0.27", "unit": "kcal/mol"}, {"measurement": "folding stability dG unfold", "setting": "[2]", "result": "3.99 ± 0.21", "unit": "kcal/mol"}, {"measurement": "folding stability dG unfold", "setting": "[3]", "result": "2.35 ± 0.086", "unit": "kcal/mol"}]}, {"sequence": "SAGGSAGGSEIKIEKAEITVEYDEETGVFRATITLPDGYRITAEFRLRPDGSLELTRVEIEEVSAGGSAGGS [r12_111_TrROS_Hall]", "values": [{"measurement": "folding stability dG unfold", "setting": "[1]", "result": "5.29 ± 0.25", "unit": "kcal/mol"}, {"measurement": "folding stability dG unfold", "setting": "[2]", "result": "5.37 ± 0.11", "unit": "kcal/mol"}, {"measurement": "folding stability dG unfold", "setting": "[3]", "result": "4.3 ± 0.19", "unit": "kcal/mol"}]}]}
